# Laboratory results taken from publication PMC6547419.
# T1: rVEGF164 (rat, UniProt P16612-2 27-190)
# T1 sequence: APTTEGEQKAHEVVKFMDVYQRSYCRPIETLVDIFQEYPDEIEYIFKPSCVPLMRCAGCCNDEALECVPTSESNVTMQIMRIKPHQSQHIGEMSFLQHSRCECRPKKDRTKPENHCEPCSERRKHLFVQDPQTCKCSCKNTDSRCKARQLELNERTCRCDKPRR
# Tests used:
# hVEGF165 = hVEGF165 (human, UniProt P15692-4 27-191); assay: ELONA1
# rVEGF164 [1] = molecular target: T1, rVEGF164; assay: ELONA1
# rVEGF164 [2] = molecular target: T1, rVEGF164; assay: ELONA2
binder,measurement,setting,value
TGTGGGGGTGGACGGGCCGGGTAGA (ssDNA) [V7t1],Kd,hVEGF165,0.77 ± 0.17 nM
same,Kd,rVEGF164 [1],0.62 ± 0.14 nM
same,Kd,rVEGF164 [2],4.3 ± 0.5 nM
